This note sets out measurements from article PMC4358659, “The functional interactome of PYHIN immune regulators reveals IFIX is a sensor of viral DNA”.

In data set [1] the target is T1, GST-IFIX-HIN200 (human, UniProt Q6K0P9 200-492).
T1 sequence: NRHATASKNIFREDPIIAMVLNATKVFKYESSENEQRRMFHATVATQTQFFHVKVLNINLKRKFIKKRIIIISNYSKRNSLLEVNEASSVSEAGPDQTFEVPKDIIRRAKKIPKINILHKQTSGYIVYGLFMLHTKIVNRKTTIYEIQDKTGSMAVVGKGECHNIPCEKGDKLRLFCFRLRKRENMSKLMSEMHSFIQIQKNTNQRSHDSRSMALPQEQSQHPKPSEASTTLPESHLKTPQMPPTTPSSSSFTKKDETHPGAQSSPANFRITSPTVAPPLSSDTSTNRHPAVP
In words: EMSA; 2 pmol protein, 20 fmol DNA; EMSA: 10 mM Tris pH 7.5, 50 mM KCl, 1 mM DTT, 50 μg/ml BSA, ambient temperature, 30 min. The note with it: protein: recombinant; tags: N-terminal GST (pGEX-4T1); label: 5'-biotin on sense strand; blunt.

The target of data set [2] is T1, GST-IFIX-HIN200. In words: competition; unlabeled ISD competes with biotinylated ISD (EMSA); EMSA: 10 mM Tris pH 7.5, 50 mM KCl, 1 mM DTT, 50 μg/ml BSA, ambient temperature, 30 min. The note with it: protein: recombinant; tags: N-terminal GST (pGEX-4T1); blunt. For orientation: Mobility shift assays separate free from complexed probe on a gel.

B1: ISD (biotinylated) (dsDNA)
DNA 1: TACAGATCTACTAGTGATCTATGACTGATCTGTACATGATCTACA
DNA 2: TGTAGATCATGTACAGATCAGTCATAGATCACTAGTAGATCTGTA
Regarding B1, in data set [1], the binding result is on record as “binds”.

B2: ISD (unlabeled competitor) (dsDNA)
DNA 1: B1 DNA 1
DNA 2: B1 DNA 2
With B2, in data set [2], the binding result is recorded as “binds”.
